Source: patent US6884600B1, “Protein phosphatase-1 catalytic subunit interactions” (Medical Research Council London, priority 1996, dated 2005)

What was measured:
[1] = target: PP1c (γ1-isoform) (Homo sapiens, UniProt P36873); experiment: Far Western: GST-GM fusion proteins probed with digoxygenin-labelled PP1γ; format: binding; settings: GST-fusion proteins on blot probed with digoxygenin-labelled PP1γ
Source text: GST-GM fusion proteins were electrophoresed on 10% SDS/polyacrylamide gels and stained with Coomassie blue (lanes 1-3) or, after transfer to nitrocellulose, probed with digoxygenin-labelled PP1γ (lanes 4-6) as in [9]. Lanes 1 and 4, GST-GM-(E2-D118); Lanes 2 and 5, GST-GM-(H100-P350); Lanes 3 and 6, GST. The positions of the marker proteins glycogen phosphorylase (97 kDa), bovine serum albumin (66 kDa), ovalbumin (43 kDa), carbonic anhydrase (29 kDa) and soybean trypsin inhibitor (20 kDa) are indicated.
(§1) The myosin-associated form of PP1 (PP1M) was from chicken gizzard and the glycogen-associated form of PP1 (PP1G) from rabbit skeletal muscle. The β isoform of PP1c was released from PP1G by incubation for 2 hours in 2M LiBr, then purified by gel-filtration on a 30×1 cm column of Superose 12 (Pharmacia, Milton Keynes, U.K.) in the presence of 0.5M LiBr. Glycogen protein particles from rat liver were used as the source of hepatic PP1G Digoxygenin-labelled PP1c (γ1-isoform, hereafter termed PP1) was prepared as in [9]. GL was expressed in E. coli as a glutathione-S-transferase (GST) fusion protein [7], termed GST-GL. The catalytic subunit of PP2A from bovine heart (PP2AC) was provided by Dr R. MacKintosh in this Unit. The phosphorylatable myosin light chain (MLC20) and heavy meromyosin from chicken gizzard were a gift from Dr M. Ikebe (Case Western Reserve University, Cleveland, USA). Thrombin and benzamidine-Agarose were purchased from Sigma (Poole, UK).
The amino acid sequence of rat hepatic GL is 23% identical (39% similar) to residues 1-286 of GM from human skeletal muscle. […] Fusion proteins in which GST was linked to fragments of GM were therefore tested for their ability to bind to PP1c. […] We therefore synthesised GM-(G63-T93) and examined its effect on the enzymatic properties of PP1GL, the form of PP1 associated with rat hepatic protein-glycogen particles.

[2] = target: T1, PP1c (Oryctolagus cuniculus, UniProt P62143); experiment: Phosphorylase phosphatase activity of PP1c; format: biochemical, rabbit
T1 construct: from tissue; host or cells: rabbit skeletal muscle (PP1G dissociated with LiBr)
Description: (§2) A,B; Effects of M110-(M1-E309) (closed circles), M110-(M1-F38) (open circles) and M110-(D39-E309) (open triangles) on the MLC20 phosphatase […] and phosphorylase phosphatase (B) activities of PP1c were measured after incubating PP1c for 15 minutes at 30° C. with each fragment. The results are presented as a percentage of those obtained in experiments where the M110 fragments were omitted.
(§3) C,D; The effect of M110-(M1-A150) (open circles) and M110-(L24-Y496) (closed circles) on the MLC20 phosphatase (C) and phosphorylase phosphatase (D) activities of PP1c were measured as in A,B.
(B) The phosphorylase phosphatase activity of PP1c was assayed as in A in the presence or absence of 1 μM GM-(G63-T93) and 1.0 nM M110-(M1-E309). The results are presented (SEM for three experiments) as a percentage of the PP1c activity measured in the absence of GM-(63-T93), M110-(M1-F38) or M110-(M1-E309).
as §1
(§4) ^32P-labelled rabbit skeletal muscle phosphorylase a (containing 1.0 mol phosphate per mol subunit) was prepared by phosphorylation with phosphorylase kinase, ^32P-labelled rabbit skeletal muscle glycogen synthase (containing 1.5 mol/mol subunit in the sites 3 region) was prepared by phosphorylation with glycogen synthase kinase-3 [24]). ^32P-labelled chicken gizzard MLC20 and ^32P-labelled chicken gizzard heavy meromyosin (containing 1.0 mol phosphate per mol subunit) were prepared by phosphorylation with smooth muscle myosin light chain kinase. The dephosphorylation of phosphorylase a (10 μM), glycogen synthase (1 μM) and MLC20 (1 μM) and heavy meromyosin (1 μM) was carried out as in [24]. One unit of activity (U) was that amount which released […] of phosphate in one minute.
(§5) PP1c was isolated from the rabbit skeletal muscle PP1-GM complex as described previously (Johnson et al, 1996). Glycogen particles isolated from rat liver (Schelling el al, 1988) served as the source of PP1-GL. The dephosphorylation of glycogen phosphorylase (10 μM) and the isolated MLC20 of smooth muscle myosin (1 μM) by PP1c was carried out as described previously (Cohen et al., 1988; Alessi et al., 1992).

[3] = target: T1, PP1c; experiment: MLC20 (myosin P-light chain) phosphatase activity of PP1c; format: biochemical
Description: as §2, §3
(A) The MLC20 phosphatase activity of PP1c was assayed after incubation for 15 minutes at 30° C. in the presence or absence of 1 μM GM-(G63-T93) and either 0.1 μM M110-(M1-F38) or 0.1 nM M110-(M1-E309).
(1-38, open circles) or M110[M1-K35] (1-35, closed circles) were incubated with PP1c for 15 min at 30° C. and reactions started with the ^32P-labelled MLC20 substrate. The results are expressed as a % of the activity determined in control incubations where the M110 peptides were omitted (100%). Similar results were obtained in three separate experiments.
as §1, §4, §5
^32P-labelled myosin P-light chains containing 1.0 mol phosphate per mol subunit was prepared by phosphorylation with smooth muscle myosin light chain kinase. The dephosphorylation of myosin P-light chain (1 μM) was carried out as in [4] and one unit of activity (U) was that amount which catalysed the release of 1 μmole of phosphate in one min. When assaying PP1M in immunoprecipitates from the myofibrillar extracts, the tubes were shaken continuously and 3 nM okadaic acid was included to inhibit any PP2A present.

[4] = target: T2, myosin (Gallus gallus, UniProt P10587); experiment: Myosin binding assay (pelleting with myosin); design: species or system chicken; settings: myosin 1 μM, 15 min 0° C.
T2 construct: from tissue; host or cells: chicken gizzard
Description: The PP1 catalytic subunit (PP1c), PP1M, or PP1M lacking the M21 subunit, PP1M(ΔM21), each at 30 nM, were incubated for 15 min at 0° C. with 1 μM myosin and centrifuged (see Methods of Example 3). […] The results shown are the average (±S.E.M.) for three separate experiments each assayed in duplicate.
(A); PP1M, M110-(M1-S477) and GST-M110-(M377-K976), each at 30 nM were incubated for 15 min at 0° C. with 1 μM myosin and centrifuged. The supernatants (S), resuspended pellets (P) and the suspension before centrifugation (T, total) were electrophoresed on 12% SDS/polyacrylamide gels, transferred to nitrocellulose and immunoblotted with antibodies raised against the PP1M holoenzyme. No protein was pelleted in the absence of myosin (not shown). The positions of the marker proteins myosin heavy chain (200 kDa), glycogen phosphorylase (97 kDa), bovine serum albumin (66 kDa), ovalbumin (43 kDa), carbonic anhydrase (29 kDa) and soybean trypsin inhibitor (20 kDa) are indicated. (B) The experiments were carried out as in (A), except that the M110 fragments and M21 subunit were used at 100 nM, the 8.5 kDa M110-(K933-I1004) fragment was electrophoresed on a 16.5% polyacrylamide gel and immunoblotting was carried out with affinity purified antibodies (see Methods). A small amount of M110-(R714-I1004) pelleted in the absence of myosin. […] No other protein was pelleted in the absence of myosin.
(A); Myosin (1 μM) was mixed with 50 μM, 20 μM or 10 μM M21 subunit to give the molar ratios M21:myosin dimer indicated. After 15 min at 0° C., the solutions were centrifuged and the supernatants (S), resuspended pellets (P) and the suspension before centrifugation (T, total) were electrophoresed on 12% SDS/polyacrylamide gels and stained with Coomassie blue. The positions of the myosin heavy chain (MHC) and the M21 subunit are indicated. The myosin light chains migrate faster than the M21 subunit and are not visible at these loadings.
Myosin binding assays. Myosin (0.5 mg/ml, 1 μM in terms of myosin heavy chains) in 10 mM Hepes pH 7.5, 50 mM KCl, 5 mM MgCl2, 0.1% (by vol) 2-mercaptoethanol, was mixed with PP1M, M21 subunit, or fragments of the M110 and M21 subunits, at the concentrations indicated in figure legends. After incubation for 15 min at 0° C., the solutions were centrifuged for 2 min at 13,000×g, the supernatants removed, and the pellets washed twice in 10 mM Hepes pH 7.5, 50 mM KCl, 5 mM MgCl2, 0.1% (by vol) 2-mercaptoethanol before resuspension in 50 mM Tris-HCl pH 7.5, 0.1 mM EGTA, 0.03% (by mass) Brij 35, 0.6 M NaCl, 0.1% (by vol) 2-mercaptoethanol. Aliquots of the supernatant, the resuspended pellet and the suspension before centrifugation were either assayed for myosin P-light chain phosphatase activity or denatured in SDS and analysed by SDS/polyacrylamide gel electrophoresis.

PP1c (γ1-isoform), sequence (P36873 whole entry, the tested form may be a part, canonical isoform): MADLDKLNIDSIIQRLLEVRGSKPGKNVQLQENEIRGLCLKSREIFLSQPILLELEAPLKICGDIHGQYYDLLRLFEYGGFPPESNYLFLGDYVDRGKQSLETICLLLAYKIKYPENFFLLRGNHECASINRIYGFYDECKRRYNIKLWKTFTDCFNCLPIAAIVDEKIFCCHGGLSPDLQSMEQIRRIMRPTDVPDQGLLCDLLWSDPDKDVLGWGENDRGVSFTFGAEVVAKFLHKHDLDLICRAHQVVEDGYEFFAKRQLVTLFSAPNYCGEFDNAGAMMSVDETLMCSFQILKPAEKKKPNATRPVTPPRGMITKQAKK
T1 sequence (P62143 whole entry): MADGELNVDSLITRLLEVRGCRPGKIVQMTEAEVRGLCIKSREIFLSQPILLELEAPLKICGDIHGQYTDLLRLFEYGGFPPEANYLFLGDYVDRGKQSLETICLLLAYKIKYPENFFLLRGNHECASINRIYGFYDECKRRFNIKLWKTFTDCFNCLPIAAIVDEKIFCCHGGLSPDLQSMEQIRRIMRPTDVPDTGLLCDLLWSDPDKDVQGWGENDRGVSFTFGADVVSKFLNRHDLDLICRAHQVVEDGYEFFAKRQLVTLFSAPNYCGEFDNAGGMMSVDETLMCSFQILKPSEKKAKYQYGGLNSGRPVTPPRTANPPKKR
T2 sequence (P10587 whole entry): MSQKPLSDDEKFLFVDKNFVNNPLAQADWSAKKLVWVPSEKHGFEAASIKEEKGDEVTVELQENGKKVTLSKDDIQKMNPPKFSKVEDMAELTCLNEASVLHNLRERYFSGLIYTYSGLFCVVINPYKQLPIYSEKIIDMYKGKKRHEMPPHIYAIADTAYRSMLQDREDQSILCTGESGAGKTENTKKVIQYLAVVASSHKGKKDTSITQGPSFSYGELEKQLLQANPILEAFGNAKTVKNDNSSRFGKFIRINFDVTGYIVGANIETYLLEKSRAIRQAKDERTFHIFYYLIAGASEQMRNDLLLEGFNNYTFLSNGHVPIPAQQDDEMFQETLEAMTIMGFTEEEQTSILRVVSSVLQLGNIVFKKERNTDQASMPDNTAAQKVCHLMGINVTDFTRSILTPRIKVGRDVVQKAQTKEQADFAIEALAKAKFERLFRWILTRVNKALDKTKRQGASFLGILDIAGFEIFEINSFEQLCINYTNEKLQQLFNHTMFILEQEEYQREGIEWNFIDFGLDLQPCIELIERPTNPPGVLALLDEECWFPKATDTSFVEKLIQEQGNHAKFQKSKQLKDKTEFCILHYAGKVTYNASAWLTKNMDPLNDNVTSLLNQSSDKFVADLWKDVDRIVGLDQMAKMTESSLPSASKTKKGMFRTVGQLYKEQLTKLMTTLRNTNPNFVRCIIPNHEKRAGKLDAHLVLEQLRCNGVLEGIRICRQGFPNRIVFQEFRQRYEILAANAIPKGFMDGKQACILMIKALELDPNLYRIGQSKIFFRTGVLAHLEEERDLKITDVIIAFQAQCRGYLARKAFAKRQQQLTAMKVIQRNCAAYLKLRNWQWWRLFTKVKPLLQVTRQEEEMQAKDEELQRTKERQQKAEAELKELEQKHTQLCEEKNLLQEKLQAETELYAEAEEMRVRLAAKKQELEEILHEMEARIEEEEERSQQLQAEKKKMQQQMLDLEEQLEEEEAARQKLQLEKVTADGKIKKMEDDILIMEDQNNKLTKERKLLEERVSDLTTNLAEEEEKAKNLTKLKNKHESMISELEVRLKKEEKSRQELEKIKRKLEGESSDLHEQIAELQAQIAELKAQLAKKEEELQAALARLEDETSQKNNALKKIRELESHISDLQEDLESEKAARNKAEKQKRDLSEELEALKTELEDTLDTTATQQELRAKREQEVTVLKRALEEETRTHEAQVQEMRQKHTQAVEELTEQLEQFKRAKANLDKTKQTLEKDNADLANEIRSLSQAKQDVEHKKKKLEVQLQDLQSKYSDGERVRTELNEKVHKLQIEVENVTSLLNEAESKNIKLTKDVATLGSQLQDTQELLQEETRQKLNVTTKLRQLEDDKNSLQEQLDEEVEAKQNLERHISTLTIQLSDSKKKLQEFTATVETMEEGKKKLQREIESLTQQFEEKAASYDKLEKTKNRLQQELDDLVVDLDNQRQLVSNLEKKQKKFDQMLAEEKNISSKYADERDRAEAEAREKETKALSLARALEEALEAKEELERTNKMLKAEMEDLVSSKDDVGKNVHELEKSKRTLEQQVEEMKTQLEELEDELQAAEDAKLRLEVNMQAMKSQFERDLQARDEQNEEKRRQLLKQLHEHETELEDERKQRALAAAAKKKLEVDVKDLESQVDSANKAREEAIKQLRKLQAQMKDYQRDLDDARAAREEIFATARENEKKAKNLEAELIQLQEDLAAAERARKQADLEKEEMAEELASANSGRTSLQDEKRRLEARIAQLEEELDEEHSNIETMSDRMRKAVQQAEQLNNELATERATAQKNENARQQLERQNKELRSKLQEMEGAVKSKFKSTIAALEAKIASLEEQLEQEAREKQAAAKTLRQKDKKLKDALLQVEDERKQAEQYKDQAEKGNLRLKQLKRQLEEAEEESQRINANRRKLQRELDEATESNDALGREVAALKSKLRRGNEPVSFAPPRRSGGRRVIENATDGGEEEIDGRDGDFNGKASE
T2 sequence (P02612 whole entry partner): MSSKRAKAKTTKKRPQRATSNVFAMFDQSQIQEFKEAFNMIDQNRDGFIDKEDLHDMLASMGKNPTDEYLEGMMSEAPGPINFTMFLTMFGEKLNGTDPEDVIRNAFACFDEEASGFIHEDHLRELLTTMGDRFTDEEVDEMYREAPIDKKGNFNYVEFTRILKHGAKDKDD
T2 sequence (P02607 whole entry partner): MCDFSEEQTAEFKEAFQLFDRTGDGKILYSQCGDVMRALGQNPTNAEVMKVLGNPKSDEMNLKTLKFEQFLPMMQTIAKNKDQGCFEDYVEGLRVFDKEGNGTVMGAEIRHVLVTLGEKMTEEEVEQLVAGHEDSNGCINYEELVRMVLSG

Row | Molecule | interaction with PP1 in Far Western experiments [1] | effect on the phosphorylase phosphatase activity of PP1c [2] | effect on the MLC20 phosphatase activity of PP1c [3] | binding to myosin [4]
1 | GST-GM-(E2-D118): GST fusion of amino acids 2-118 of human GM (protein, left off: a dimerising Fc or GST, GST fusion of amino acids 2-118 of human GM) EPSEVPSQISKDNFLEVPNLSDSLCEDEEVTFQPGFSPQPSRRGSDSSEDIYLDTPSSGTRRVSFADSFGFNLVSVKEFDCWELPSASTTFDLGTDIFHTEEYVLAPLFDLPSSKEDQLNSS | interacted with PP1 | – | – | –
2 | GST-GM-(E2-P243): GST fusion of amino acids 2-243 of human GM (protein, left off: a dimerising Fc or GST, GST fusion of amino acids 2-243 of human GM) EPSEVPSQISKDNFLEVPNLSDSLCEDEEVTFQPGFSPQPSRRGSDSSEDIYLDTPSSGTRRVSFADSFGFNLVSVKEFDCWELPSASTTFDLGTDIFHTEEYVLAPLFDLPSSKEDLMQQLQIQKAILESTESLLGSTSIKGIIRVLNVSFEKLVYVRMSLDDWQTHYDILAEYVPNSCDGETDQFSFKIVLVPPYQKDGSKVEFCIRYETSVGTFWSNNNGTNYTFICQKKEQEPEPVKP | interacted with PP1 | – | – | –
3 | GST-GM-(H100-P350): GST fusion of amino acids 100-350 of human GM (protein, left off: a dimerising Fc or GST, GST fusion of amino acids 100-350 of human GM) HTEEYVLAPLFDLPSSKEDLMQQLQIQKAILESTESLLGSTSIKGIIRVLNVSFEKLVYVRMSLDDWQTHYDILAEYVPNSCDGETDQFSFKIVLVPPYQKDGSKVEFCIRYETSVGTFWSNNNGTNYTFICQKKEQEPEPVKPWKEVPNRQIKGCLKVKSSKEESSVTSEENNFENPKNTDTYIPTIICSHEDKEDLEASNRNVKDVNREHDEHNEKELELMINQHLIRTRSTASRDERNTFSTDPVNFP | not | – | – | –
4 | GST-M110-(M1-S477): GST fusion of rat aorta M110 residues 1-477 (protein, left off: a dimerising Fc or GST) MKMADAKQKRNEQLKRWIGSETDLEPPVVKRQKTKVKFDDGAVFLAACSSGDTDEVLKLLHRGADINYANVDGLTALHQACIDDNVDMVKFLVENGANINQPDNEGWIPLHAAASCGYLDIAEFLIGQGAHVGAVNSEGDTPLDIAEEEAMEELLQNEVNRQGVDIEAARKEEERIMLRDARQWLNSGHISDVRHAKSGGTALHVAAAKGYTEVLKLLIQAGYDVNIKDYDGWTPLHAAAHWGKEEACRILVDNLCDMETVNKVGQTAFDVADEDILGYLEELQKKQNLLHSEKRDKKSPLIESTANMENNQPQKTFKNKETLIIEPEKNASRIESLEQEKADEEEEGKKDESSCSSEEDEEDDSESEAETDKTKPMASVTNAHTASTQAAPAAVTTPTLSSNQGTPTSPVKKFPTSTTKISPKEEERKDESPASWRLGLRKTGSYGALAEITASKEAQKEKDTAGVIRSASSPRLSSAANSISSLIHRD | – | inhibited the dephosphorylation of glycogen phosphorylase | stimulated the PP1c-catalysed dephosphorylation of the myosin P-light chain | neither GST-M110-(M1-S477) nor GST-M110-(M1-E309) bound to myosin
